From the Human Domainome abundance scans (Beltran et al. 2025)
± gives the uncertainty stated by the source.

B1: Transitional endoplasmic reticulum ATPase, residues 26 to 106; numbered along this chain, P55072 (parent)
chain: LIVDEAINEDNSVVSLSQPKMDELQLFRGDTVLLKGKKRREAVCIVLSDDTCSDEKIRMNRVVRNNLRVRLGDVISIQPCP

Variants of: B1
Experiment: abundance fitness (aPCA) (normalised: wild type 0, dead -1); higher = more abundant; growth selection in yeast, the domain comes from the species named
Details: Homo sapiens

Row | Variant | abundance fitness
1 | L34N | -0.891 ± 0.28
2 | L34R | -0.963 ± 0.17
3 | V3A | -0.242 ± 0.066
4 | V3M | -0.194 ± 0.093
5 | V3S | -0.773 ± 0.14
6 | N60P | -0.046 ± 0.079
7 | N60V | -0.418 ± 0.071
8 | N60Q | -0.307 ± 0.1
9 | N60I | -0.681 ± 0.32
10 | A42L | -0.049 ± 0.056
11 | A42G | -0.179 ± 0.049
12 | A42E | -0.117 ± 0.093
13 | A42R | 0.028 ± 0.051
14 | S76T | -0.146 ± 0.091
15 | S76C | -0.015 ± 0.096
16 | S76Q | 0.057 ± 0.11
17 | S76G | -0.021 ± 0.043
18 | Q25A | -0.116 ± 0.052
19 | Q25F | -0.129 ± 0.096
20 | Q25K | -0.013 ± 0.076
21 | Q25V | -0.202 ± 0.052
22 | Q25W | -0.256 ± 0.11
23 | Q25P | -1 ± 0.18
24 | R64H | -0.415 ± 0.1

Row | Variant | abundance fitness
25 | R64F | -0.212 ± 0.23
26 | R64S | -0.303 ± 0.072
27 | S12V | -0.067 ± 0.043
28 | S12M | 0.088 ± 0.093
29 | S12T | 0.082 ± 0.082
30 | S12E | 0.039 ± 0.062
31 | V69F | -0.717 ± 0.15
32 | V69Q | -0.689 ± 0.085
33 | V69Y | -0.781 ± 0.35
34 | V69R | -0.665 ± 0.079
35 | V69I | -0.022 ± 0.079
36 | V69A | -0.045 ± 0.064
37 | V62F | -0.023 ± 0.12
38 | V62R | -0.013 ± 0.056
39 | V62S | 0.051 ± 0.062
40 | V62A | -0.04 ± 0.06
41 | V62H | 0.038 ± 0.14
42 | N11P | -0.011 ± 0.071
43 | N11T | -0.028 ± 0.066
44 | N11C | -0.091 ± 0.059
45 | N11E | 0.031 ± 0.069
46 | N11G | -0.067 ± 0.04
47 | D54A | -0.076 ± 0.058
48 | I57M | -0.198 ± 0.084

Row | Variant | abundance fitness
49 | I57W | -0.848 ± 0.18
50 | I57Q | -0.816 ± 0.18
51 | I57N | -0.716 ± 0.3
52 | S53F | -0.032 ± 0.069
53 | S53T | -0.019 ± 0.072
54 | S53C | -0.042 ± 0.081
55 | S53W | -0.22 ± 0.071
56 | K37R | 0.028 ± 0.076
57 | K37S | 0.03 ± 0.042
58 | K37D | -0.126 ± 0.17
59 | K37N | -0.143 ± 0.32
60 | K37T | -0.072 ± 0.21
61 | K35G | -0.088 ± 0.071
62 | K35S | 0.031 ± 0.074
63 | K35P | -0.869 ± 0.27
64 | D30F | -0.638 ± 0.32
65 | D30K | -0.257 ± 0.093
66 | D30E | 0.108 ± 0.087
67 | D30T | -0.051 ± 0.068
68 | V32A | -0.18 ± 0.057
69 | V32E | -1.05 ± 0.33
70 | R70H | -0.152 ± 0.11
71 | R70N | -0.101 ± 0.12
72 | R70F | -0.184 ± 0.1

Row | Variant | abundance fitness
73 | L1I | 0.128 ± 0.14
74 | I7W | -0.003 ± 0.056
75 | I7R | -0.042 ± 0.044
76 | T51Q | -0.183 ± 0.12
77 | T51Y | -0.277 ± 0.12
78 | T51R | -0.086 ± 0.062
79 | T51D | 0.026 ± 0.094
80 | T51P | -0.306 ± 0.16
81 | T51H | -0.515 ± 0.41
82 | T51S | -0.052 ± 0.054
83 | T51K | -0.065 ± 0.088
84 | C80V | -0.06 ± 0.045
85 | C80W | -0.29 ± 0.11
86 | C80I | 0.047 ± 0.079
87 | V13H | 0.053 ± 0.12
88 | V13C | 0.056 ± 0.11
89 | V13A | -0.125 ± 0.043
90 | V13Q | -0.112 ± 0.065
91 | V13I | 0.053 ± 0.11
92 | I45L | -0.016 ± 0.059
93 | I45D | -0.183 ± 0.084
94 | I45Y | -0.029 ± 0.11
95 | I45F | -0.018 ± 0.076
96 | I45E | 0.035 ± 0.1

Row | Variant | abundance fitness
97 | K20F | -0.233 ± 0.09
98 | K20M | 0.04 ± 0.074
99 | K20I | -0.008 ± 0.058
100 | K20R | -0.019 ± 0.073
101 | K20S | -0.162 ± 0.056
102 | K20V | 0.004 ± 0.046
103 | K20C | -0.096 ± 0.11
104 | D4E | -0.015 ± 0.095
105 | D4C | 0.096 ± 0.073
106 | D4A | -0.009 ± 0.055
107 | D4T | -0.017 ± 0.061
108 | D4R | -0.627 ± 0.062
109 | D4W | -0.091 ± 0.08
110 | L24S | -0.74 ± 0.095
111 | L24D | -0.759 ± 0.079
112 | L24C | -0.574 ± 0.12
113 | L24R | -0.509 ± 0.045
114 | L24G | -0.775 ± 0.069
115 | L24E | -0.709 ± 0.079
116 | V43Y | 0.072 ± 0.14
117 | V43I | -0.038 ± 0.097
118 | V43N | -0.176 ± 0.19
119 | V43Q | 0.147 ± 0.12
120 | P79R | -0.106 ± 0.062

Row | Variant | abundance fitness
121 | P79F | -0.012 ± 0.088
122 | P79K | 0.113 ± 0.12
123 | L33T | -0.03 ± 0.088
124 | L33I | -0.23 ± 0.14
125 | L33D | -0.572 ± 0.064
126 | L33W | -0.155 ± 0.065
127 | G72S | -0.278 ± 0.082
128 | G72A | -0.271 ± 0.061
129 | G72N | -0.043 ± 0.28
130 | G72E | -0.23 ± 0.088
131 | G72D | -0.187 ± 0.15
132 | V46L | -0.183 ± 0.046
133 | V46C | -0.048 ± 0.095
134 | V46N | -0.749 ± 0.21
135 | V46E | -0.649 ± 0.1
136 | V46S | -0.493 ± 0.078
137 | R58G | -0.156 ± 0.056
138 | R58K | -0.013 ± 0.12
139 | R58F | -0.216 ± 0.19
140 | R58M | -0.068 ± 0.095
141 | C52M | -0.016 ± 0.092
142 | C52D | -0.433 ± 0.11
143 | C52V | -0.062 ± 0.054
144 | C52Y | -0.439 ± 0.12

Row | Variant | abundance fitness
145 | C52I | -0.091 ± 0.2
146 | C52K | -0.334 ± 0.14
147 | N66V | -0.104 ± 0.06
148 | N66L | -0.012 ± 0.066
149 | N66Y | -0.176 ± 0.13
150 | N66E | 0.042 ± 0.084
151 | N66P | -0.952 ± 0.2
152 | N66A | -0.071 ± 0.069
153 | N66W | -0.255 ± 0.092
154 | N66G | -0.021 ± 0.051
155 | R28L | 0.012 ± 0.059
156 | R28E | 0.094 ± 0.056
157 | R28S | -0.009 ± 0.055
158 | R28M | 0.011 ± 0.092
159 | R28C | 0.053 ± 0.15
160 | R28A | 0.085 ± 0.06
161 | R28K | 0.064 ± 0.069
162 | E23K | -0.187 ± 0.11
163 | E23L | -0.148 ± 0.089
164 | E23R | -0.09 ± 0.064
165 | E23A | -0.103 ± 0.06
166 | E23F | -0.263 ± 0.21
167 | E23P | -1.16 ± 0.32
